The target in one assay is human CD40 (human) (UniProt P25942). Description: cell-based or functional assay.
Assay [1] concerns the target purified human C1q (human) (UniProt P02745). Briefly: cell-based or functional assay.

Sequence of human CD40 (human) (P25942 21-277): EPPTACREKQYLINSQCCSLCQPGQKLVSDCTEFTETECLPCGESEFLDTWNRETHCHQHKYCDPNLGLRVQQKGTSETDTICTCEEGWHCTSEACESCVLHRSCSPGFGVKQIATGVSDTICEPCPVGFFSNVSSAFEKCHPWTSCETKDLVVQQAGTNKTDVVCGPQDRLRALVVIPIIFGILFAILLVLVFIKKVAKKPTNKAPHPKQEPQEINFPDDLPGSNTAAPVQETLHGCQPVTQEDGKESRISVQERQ

In the assay with human CD40 (human), “purified, recombinant CD40 ligand (R&D systems, Cat No. 6420-CL-025/CF) (from UniProt P29965 108-261)” showed a CD40 response, luciferase reporter cells, EC50 of 0.113 µg/mL.

IgG1-b12 (antibody) registered a C1q EC90 (µg/mL), viability assay on WIL2-S SF cells in assay [1] above 2.5 µg/mL.

(Values after US20200181277A1.)
